Results on three substances are retold here after US20070054851A1.

Assay [1] concerns the target ErbB1 receptor (EGF receptor) on HeLa 229 cells (UniProt P00533). Put plainly: cell-based or functional assay.
Another assay deals with ErbB1 receptor (UniProt P00533). Briefly: cell-based or functional assay.

A value given as a limit tells only on which side of the number the result lay.

Chain of PEGylated betacellulin produced using the mPEG-ButyrALD-20K reagent (P35070 other isoform, or with tags, fused parts or gaps limits assumed): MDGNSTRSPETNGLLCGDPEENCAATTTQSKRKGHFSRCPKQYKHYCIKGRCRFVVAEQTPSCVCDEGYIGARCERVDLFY
Chain of PEGylated betacellulin produced using the mPEG-SMB-20K reagent (P35070 other isoform, or with tags, fused parts or gaps limits assumed): as above
Chain of UniProt P35070 (P35070 other isoform, or with tags, fused parts or gaps limits assumed): as above

As for “PEGylated betacellulin produced using the mPEG-ButyrALD-20K reagent (from UniProt P35070 32-111) (ligand)”, in assay [1], the activity % (phospho-EGFR pY1068 ELISA, HeLa cells; SEC column S70; 40 nM submitted to assay) is 58% and the activity % (phospho-EGFR pY1068 ELISA, HeLa cells; SEC column S200; 40 nM submitted to assay) was 55%. Further, the activity in phospho-EGFR pY1068 ELISA on HeLa 229 cells, against unreacted betacellulin with ErbB1 receptor (scale: % reduction against unreacted betacellulin) is < 50.

In the case of “PEGylated betacellulin produced using the mPEG-SMB-20K reagent (from UniProt P35070 32-111) (ligand)”, in assay [1], the ELISA activity is equivalent to [BTC] nM (phospho-EGFR pY1068 ELISA, HeLa cells; SEC column S200; 40 nM submitted to assay) stood at 14 nM; the activity % (phospho-EGFR pY1068 ELISA, HeLa cells; SEC column S70; 40 nM submitted to assay) worked out at 26%; the activity % (phospho-EGFR pY1068 ELISA, HeLa cells; SEC column S200; 40 nM submitted to assay) turned out to be 34%. In the assay with ErbB1 receptor, this substance returned an activity in phospho-EGFR pY1068 ELISA on HeLa 229 cells, against unreacted betacellulin (fold lower than unreacted betacellulin) of 3.

For “Unreacted (row label under 'PEGylation chemistry'; taken as the unreacted betacellulin fraction from the S70 size exclusion column) (from UniProt P35070 32-111) (ligand)”, in assay [1], the ELISA activity is equivalent to [BTC] nM (phospho-EGFR pY1068 ELISA, HeLa cells; SEC column S70; 40 nM submitted to assay) was determined as 0 nM and the activity % (phospho-EGFR pY1068 ELISA, HeLa cells; SEC column S70; 40 nM submitted to assay) is 0%.
